The test has as its target Neuropilin-1 (Nrp-1), zebrafish (zebrafish) (UniProt Q8QFX6). The test can be described thus: cell-based or functional assay.
UniProt Q8QFX6, sequence (Q8QFX6 20-923 limits assumed): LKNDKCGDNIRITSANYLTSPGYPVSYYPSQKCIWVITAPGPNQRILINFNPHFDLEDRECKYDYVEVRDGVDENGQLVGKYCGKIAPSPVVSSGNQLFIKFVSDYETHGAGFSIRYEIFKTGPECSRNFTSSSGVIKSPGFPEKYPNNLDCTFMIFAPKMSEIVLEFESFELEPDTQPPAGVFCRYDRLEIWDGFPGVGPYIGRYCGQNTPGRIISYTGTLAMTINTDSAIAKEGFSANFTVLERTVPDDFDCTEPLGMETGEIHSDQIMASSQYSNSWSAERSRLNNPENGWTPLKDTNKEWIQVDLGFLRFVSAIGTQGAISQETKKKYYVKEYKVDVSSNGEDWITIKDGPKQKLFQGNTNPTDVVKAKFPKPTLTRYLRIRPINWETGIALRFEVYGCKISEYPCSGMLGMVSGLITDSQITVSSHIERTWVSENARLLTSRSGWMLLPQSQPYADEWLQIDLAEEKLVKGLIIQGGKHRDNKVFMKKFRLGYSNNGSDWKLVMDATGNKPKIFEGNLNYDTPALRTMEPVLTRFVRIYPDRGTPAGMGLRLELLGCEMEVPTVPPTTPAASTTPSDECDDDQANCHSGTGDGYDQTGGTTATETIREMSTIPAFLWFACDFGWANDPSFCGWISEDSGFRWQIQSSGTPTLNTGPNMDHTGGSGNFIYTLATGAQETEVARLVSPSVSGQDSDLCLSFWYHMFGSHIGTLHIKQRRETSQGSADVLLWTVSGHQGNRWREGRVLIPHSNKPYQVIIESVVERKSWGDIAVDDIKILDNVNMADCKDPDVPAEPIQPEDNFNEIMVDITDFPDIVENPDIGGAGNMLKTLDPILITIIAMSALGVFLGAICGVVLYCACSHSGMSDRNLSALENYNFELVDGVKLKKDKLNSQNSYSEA

As for “Vegfaa-165 R165E (zebrafish VEGF-A isoform 165 with arginine 165 changed to glutamic acid) (ligand)”, the Rescue percentage (embryos with blood flow circulation and without pericardial edema after mRNA injection into vegfaa-/- zebrafish) was 3%.

The record behind these values is patent EP3216458A1.
